Consider eleven variants from publication PMC5454376, “Molecular mechanism of Gαi activation by non-GPCR proteins with a Gα-Binding and Activating motif” (Nature Communications, 2017).

Sequences and labels used below:
B1: Human His-Gαi3 WT [human] / Fluorescein-labelled RGS12 GoLoco peptide (residues 1,185–1,221) [modified: 5,6-carboxyfluorescein coupled to the resin-bound peptide after chain elongation; 5,6-carboxyfluorescein coupled to the … (parent)
chain 1: MGCTLSAEDKAAVERSKMIDRNLREDGEKAAKEVKLLLLGAGESGKSTIVKQMKIIHEDGYSEDECKQYKVVVYSNTIQSIIAIIRAMGRLKIDFGEAARADDARQLFVLAGSAEEGVMTPELAGVIKRLWRDGGVQACFSRSREYQLNDSASYYLNDLDRISQSNYIPTQQDVLRTRVKTTGIVETHFTFKDLYFKMFDVGGQRSERKKWIHCFEGVTAIIFCVALSDYDLVLAEDEEMNRMHESMKLFDSICNNKWFTETSIILFLNKKDLFEEKIKRSPLTICYPEYTGSNTYEEAAAYIQCQFEDLNRRKDTKEIYTHFTCATDTKNVQFVFDAVTDVIIKNNLKECGLY
chain 2: DEAEEFFELISKAQSNRADDQRGLLRKEDLVLPEFLR

In the assay the parent is B1. The assay can be described thus: fluorescence polarisation. Conditions: with Fluorescein-labelled RGS12 GoLoco peptide (residues 1,185–1,221) [modified: 5,6-carboxyfluorescein coupled to the resin-bound peptide after chain elongation. For orientation: In fluorescence polarisation assays a small probe gives low polarisation when free and higher when bound to something large.
As to chain 1 MGCTLSAEDKAAVERSKMIDRNLREDGEKAAKEVKLLLLGAGESGKSTIVKQMKIIHEDGYSEDECKQYKVVVYSNTIQSIIAIIRAMGRLKIDFGEAARADDARQLFVLAGSAEEGVMTPELAGVIKRLWRDGGVQACFSRSREYQLNDSASYYLNDLDRISQSNYIPTQQDVLRTRVKTTGIVETHFTFKDLYFKMFDVGGQRSERKKWIHCFEGVTAIIFCVALSDYDLVLAEDEEMNRMHESMKLFDSICNNKFFTETSIILFLNKKDLFEEKIKRSPLTICYPEYTGSNTYEEAAAYIQCQFEDLNRRKDTKEIYTHFTCATDTKNVQFVFDAVTDVIIKNNLKECGLY [chain 1 W258F], the ratio to parent is 1.15.
Under chain 1 MGCTLSAEDKAAVERSKMIDRNLREDGEKAAKEVKLLLLGAGESGKSTIVKQMKIIHEDGYSEDECKQYKVVVYSNTIQSIIAIIRAMGRLKIDFGEAARADDARQLFVLAGSAEEGVMTPELAGVIKRLWRDGGVQACFSRSREYQLNDSASYYLNDLDRISQSNYIPTQQDVLRTRVKTTGIVETHFTFKDLYFKMFDVGGQRSERKKWIHCFEGVTAIIFCVALSDYDLVLAEDEEMNRMHESMKHFDSICNNKWFTETSIILFLNKKDLFEEKIKRSPLTICYPEYTGSNTYEEAAAYIQCQFEDLNRRKDTKEIYTHFTCATDTKNVQFVFDAVTDVIIKNNLKECGLY [chain 1 L249H] stands 4.89; under chain 1 MGCTLSAEDKAAVERSKMIDRNLREDGEKAAKEVKLLLLGAGESGKSTIVKQMKIIHEDGYSEDECKQYKVVVYSNTIQSIIAIIRAMGRLKIDFGEAARADDARQLFVLAGSAEEGVMTPELAGVIKRLWRDGGVQACFSRSREYQLNDSASYYLNDLDRISQSNYIPTQQDVLRTRVKTTGIVETHFTFKDLYFKMFDVGGQRSERKKWIHCFEGVTAIIFCVALSDYDLVLAEDEEMNRMHESMKVFDSICNNKWFTETSIILFLNKKDLFEEKIKRSPLTICYPEYTGSNTYEEAAAYIQCQFEDLNRRKDTKEIYTHFTCATDTKNVQFVFDAVTDVIIKNNLKECGLY [chain 1 L249V], 1.54; under chain 1 MGCTLSAEDKAAVERSKMIDRNLREDGEKAAKEVKLLLLGAGESGKSTIVKQMKIIHEDGYSEDECKQYKVVVYSNTIQSIIAIIRAMGRLKIDFGEAARADDARQLFVLAGSAEEGVMTPELAGVIKRLWRDGGVQACFSRSREYQLNDSASYYLNDLDRISQSNYIPTQQDVLRTRVKTTGIVETHFTFKDLYFKMFDVGGQRSERKKAIHCFEGVTAIIFCVALSDYDLVLAEDEEMNRMHESMKLFDSICNNKWFTETSIILFLNKKDLFEEKIKRSPLTICYPEYTGSNTYEEAAAYIQCQFEDLNRRKDTKEIYTHFTCATDTKNVQFVFDAVTDVIIKNNLKECGLY [chain 1 W211A], 1.11.
Under chain 1 MGCTLSAEDKAAVERSKMIDRNLREDGEKAAKEVKLLLLGAGESGKSTIVKQMKIIHEDGYSEDECKQYKVVVYSNTIQSIIAIIRAMGRLKIDFGEAARADDARQLFVLAGSAEEGVMTPELAGVIKRLWRDGGVQACFSRSREYQLNDSASYYLNDLDRISQSNYIPTQQDVLRTRVKTTGIVETHFTFKDLYFKMFDVGGQRSERKKWIHCFEGATAIIFCVALSDYDLVLAEDEEMNRMHESMKLFDSICNNKWFTETSIILFLNKKDLFEEKIKRSPLTICYPEYTGSNTYEEAAAYIQCQFEDLNRRKDTKEIYTHFTCATDTKNVQFVFDAVTDVIIKNNLKECGLY [chain 1 V218A] stands 1.92; under chain 1 MGCTLSAEDKAAVERSKMIDRNLREDGEKAAKEVKLALLGAGESGKSTIVKQMKIIHEDGYSEDECKQYKVVVYSNTIQSIIAIIRAMGRLKIDFGEAARADDARQLFVLAGSAEEGVMTPELAGVIKRLWRDGGVQACFSRSREYQLNDSASYYLNDLDRISQSNYIPTQQDVLRTRVKTTGIVETHFTFKDLYFKMFDVGGQRSERKKWIHCFEGVTAIIFCVALSDYDLVLAEDEEMNRMHESMKLFDSICNNKWFTETSIILFLNKKDLFEEKIKRSPLTICYPEYTGSNTYEEAAAYIQCQFEDLNRRKDTKEIYTHFTCATDTKNVQFVFDAVTDVIIKNNLKECGLY [chain 1 L37A], 1.46; under chain 1 MGCTLSAEDKAAVERSKMIDRNLREDGEKAAKEVKLLLLGAGESGKSTIVKQMKIIHEDGYSEDECKQYKVVVYSNTIQSIIAIIRAMGRLKIDFGEAARADDARQLFVLAGSAEEGVMTPELAGVIKRLWRDGGVQACFSRSREYQLNDSASYYLNDLDRISQSNYIPTQQDVLRTRVKTTGIVETHFTFKDLYFKMFDVGGQRSERKKWIHCFEGVTAIIFCVALSDYDLVLAEDEEMNRMHESMKLFDSICNEKWFTETSIILFLNKKDLFEEKIKRSPLTICYPEYTGSNTYEEAAAYIQCQFEDLNRRKDTKEIYTHFTCATDTKNVQFVFDAVTDVIIKNNLKECGLY [chain 1 N256E], 5.78.
Regarding chain 1 MGCTLSAEDKAAVERSKMIDRNLREDGEKAAKEVKLLLLGAGESGKSTIVKQMKIIHEDGYSEDECKQYKVVVYSNTIQSIIAIIRAMGRLKIDFGEAARADDARQLFVLAGSAEEGVMTPELAGVIKRLWRDGGVQACFSRSREYQLNDSASYYLNDLDRISQSNYIPTQQDVLRTRVKTTGIVETHFTFKDLYFKMFDVGGQRSERKKWIHCFEGVTAIIFCVALSDYDLVLAEDEEMNRMHESMKLFDSICNAKWFTETSIILFLNKKDLFEEKIKRSPLTICYPEYTGSNTYEEAAAYIQCQFEDLNRRKDTKEIYTHFTCATDTKNVQFVFDAVTDVIIKNNLKECGLY [chain 1 N256A], the ratio to parent was found to be 1.42.
Take chain 1 MGCTLSAEDKAAVERSKMIDRNLREDGEKAAKEVKLLLAGAGESGKSTIVKQMKIIHEDGYSEDECKQYKVVVYSNTIQSIIAIIRAMGRLKIDFGEAARADDARQLFVLAGSAEEGVMTPELAGVIKRLWRDGGVQACFSRSREYQLNDSASYYLNDLDRISQSNYIPTQQDVLRTRVKTTGIVETHFTFKDLYFKMFDVGGQRSERKKWIHCFEGVTAIIFCVALSDYDLVLAEDEEMNRMHESMKLFDSICNNKWFTETSIILFLNKKDLFEEKIKRSPLTICYPEYTGSNTYEEAAAYIQCQFEDLNRRKDTKEIYTHFTCATDTKNVQFVFDAVTDVIIKNNLKECGLY [chain 1 L39A]: the ratio to parent is 3.23.
Regarding chain 1 MGCTLSAEDKAAVERSKMIDRNLREDGEKAAKEVKLLLLGAGESGKSTIVKQMKIIHEDGYSEDECKQYKVVVYSNTIQSIIAIIRAMGRLKIDFGEAARADDARQLFVLAGSAEEGVMTPELAGVIKRLWRDGGVQACFSRSREYQLNDSASYYLNDLDRISQSNYIPTQQDVLRTRVKTTGIVETHFTFKDLYFKMFDVGGQRSERKKWIHCFEGVTAIIFCVALSDYDLVLAEDEEMNRMHESMKLFDDICNNKWFTETSIILFLNKKDLFEEKIKRSPLTICYPEYTGSNTYEEAAAYIQCQFEDLNRRKDTKEIYTHFTCATDTKNVQFVFDAVTDVIIKNNLKECGLY [chain 1 S252D], the ratio to parent was found to be 6.17.
Under chain 1 MGCTLSAEDKAAVERSKMIDRNLREDGEKAAKEVKLLLLGAGESGKSTIVKQMKIIHEDGYSEDECKQYKVVVYSNTIQSIIAIIRAMGRLKIDFGEAARADDARQLFVLAGSAEEGVMTPELAGVIKRLWRDGGVQACFSRSREYQLNDSASYYLNDLDRISQSNYIPTQQDVLRTRVKTTGIVETHFTFKDLYFKMFDVGGQRSERKKWIHCFEGVTAIIFCVALSDYDLVLAEDEEMNRMHESMKLFDAICNNKWFTETSIILFLNKKDLFEEKIKRSPLTICYPEYTGSNTYEEAAAYIQCQFEDLNRRKDTKEIYTHFTCATDTKNVQFVFDAVTDVIIKNNLKECGLY [chain 1 S252A] stands 0.644.
